{"source": "patent US7588931B2", "about": "“High arachidonic acid producing strains of Yarrowia lipolytica” (E. I. du Pont de Nemours and Company, priority 2004, dated 2009)", "tested_on": "Yarrowia lipolytica strain ATCC #76982(Leu-)", "experiment": "EDA substrate feeding of Y. lipolytica expressing codon-optimized Δ8 desaturase genes", "format": "cell-based", "details": "MM containing 10 μg of EDA substrate, about 24 hr at 30° C.", "experimental": "Yarrowia lipolytica strain ATCC #76982(Leu-) was transformed with pDMW240 (FIG. 8D) and pDMW255, respectively, as described in the General Methods. Yeast containing the recombinant constructs were grown in MM supplemented with EDA [20:2(11,14)]. Specifically, single colonies of transformant Y. lipolytica containing either pDMW240 (containing D8S-1) or pDMW255 (containing D8S-2) were grown in 3 mL MM at 30° C. to an OD600˜1.0. For substrate feeding, 100 μl of cells were then subcultured in 3 mL MM containing 10 μg of EDA substrate for about 24 hr at 30° C. The cells were collected by centrifugation, lipids were extracted, and fatty acid methyl esters were prepared by trans-esterification, and subsequently analyzed with a Hewlett-Packard 6890 GC.\nA three amino acid difference between the protein sequence of the Δ8 desaturase deposited in GenBank (Accession No. AAD45877 [SEQ ID NO:43]) and in WO 00/34439 or Wallis et al. (Archives of Biochem. Biophys, 365:307-316 (1999)) (SEQ ID NO:252 herein) was found. Specifically, three amino acids appeared to be missing in GenBank Accession No. […]. […]"}
{"molecule": "D8S-3: synthetic Δ8 desaturase gene in pDMW261, SEQ ID NO:255 (protein, D8S-3: synthetic delta 8-desaturase gene codon-optimized for Yarrowia lipolytica in pDMW261) MKSKRQALSPLQLMEQTYDVSAWVNFHPGGAEIIENYQGRDATDAFMVMHFQEAFDKLKRMPKINPSFELPPQAAVNEAQEDFRKLREELIATGMFDASPLWYSYKISTTLGLGVLGYFLMVQYQMYFIGAVLLGMHYQQMGWLSHDICHHQTFKNRNWNNLVGLVFGNGLQGFSVTCWKDRHNAHHSATNVQGHDPDIDNLPPLAWSEDDVTRASPISRKLIQFQQYYFLVICILLRFIWCFQCVLTVRSLKDRDNQFYRSQYKKEAIGLALHWTLKALFHLFFMPSILTSLLVFFVSELVGGFGIAIVVFMNHYPLEKIGDPVWDGHGFSVGQIHETMNIRRGIITDWFFGGLNYQIEHHLWPTLPRHNLTAVSYQVEQLCQKHNLPYRNPLPHEGLVILLRYLAVFARMAEKQPAGKAL", "values": [{"measurement": "desaturation of EDA to DGLA", "value": "No desaturation of EDA to DGLA was observed"}]}
